Experimental data as given in patent US20240238445A1, “INHIBITORS AND USES THEREOF” (NEURACLE SCIENCE CO., LTD., priority 2021, published 2024).

Tests used:
[1] = target: binding of FAM19A5 protein to full-length ectodomain of LRRC4 protein (Homo sapiens, UniProt Q7Z5A7); test: Competitive inhibition assay, plate coated with full-length ectodomain of LRRC4; details: FAM19A5 5 ng/mL; 100 nM/well coat
Method: As described in Example 3, there appeared to be much similarity in the binding domains of the different members of the LRRC4 family. […] Then, recombinant FAM19A5 protein (5 ng/mL) was added in combination with one of the following: (i) LRRC4B (484-576) protein fragment, (ii) LRRC4B (453-576, AA) protein fragment, and (iii) synthetic FB-20 peptide. The plates were incubated at 37° C., and then, the amount of FAM19A5 protein bound to the coated LRRC4, LRRC4B, or LRRC4C proteins was measured using anti-FAM19A5 (1-65) antibody.

[2] = target: T1, FAM19A5 isoform 2 - LRRC4B protein complex in HEK293 cells (Homo sapiens, UniProt Q7Z5A7); test: Immunofluorescence: dissociation of FAM19A5 from full-length LRRC4B in HEK293 cells; type: cell-based; details: HEK293 cells expressing FAM19A5 isoform 2 and LRRC4B, treated 30 minutes
T1 construct: expressed in transfected cells; host or cells: HEK293
T1 sequence (Q7Z5A7 1-125 isoform Q7Z5A7-2, one chain of several): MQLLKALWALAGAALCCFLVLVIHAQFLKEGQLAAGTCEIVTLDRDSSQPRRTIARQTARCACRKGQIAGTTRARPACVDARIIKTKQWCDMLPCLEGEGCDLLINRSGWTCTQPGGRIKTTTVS
Method: Since LRRC4B protein fragments containing the binding domain described in Example 2 (e.g., LRRC4B (453-576); i.e., construct #11 in Table 6) was able to bind to FAM19A5 protein with high affinity, it was next assessed whether such protein fragments could compete with naturally existing LRRC4B protein for binding to FAM19A5 protein, and thereby, dissociate the FAM19A5-LRRC4 protein family complex. Briefly, HEK293 cells expressing both FAM19A5 isoform 2 and LRRC4B protein were treated in vitro for 30 minutes with either LRRC4B (453-576)-hFc or mutant LRRC4B (453-576)-hFc (includes alanine substitutions at positions 488 and 489 of SEQ ID NO: 2; SEQ ID NO: 16) protein fragments. Then, cells were immunostained with anti-FAM19A5 (1-65) and anti-LRRC4B antibodies to determine the expression of FAM19A5 and full-length LRRC4B proteins, respectively. The hFc-fused LRRC4B protein fragments were determined using an anti-hIgG antibody. The nuclei were stained with Hoechst 33342.

[3] = system: mouse primary hippocampal neurons; test: Synaptic marker (SYP, PSD95) expression in mouse primary hippocampal neurons; type: cell-based; details: 6 or 60 nM
Method: Next, it is generally known that neurites that outgrow from other neurites are capable of differentiating into axons, forming presynapses. Other neurites remain minor neurites and differentiate into dendrites, forming postsynapses. Therefore, whether the LRRC4B (453-576) protein fragment can also affect pre- and post-synaptic formation was also assessed. Briefly, mouse primary hippocampal neurons were cultured in vitro with the LRRC4B (453-576) protein fragment (6 or 60 nM). Control cells were treated with either DMSO (“Veh”) or the mutant LRRC4B (453-576) protein fragment which is not capable of binding to FAM19A5 protein (comprises alanine substitutions at positions 488 and 489). Then, at days 3 and 6 post initial culture, the expression level of synaptophysin (SYP; a presynaptic marker) was assessed. At day 7 post initial culture, the expression level of postsynaptic density 95 (PSD95; a postsynaptic marker) was assessed.
Primary hippocampal neurons were prepared from postnatal pups (postnatal day 1) of C57BL/6 (Nara Biotech, Seoul, Korea) as previously described by Beaudoin et al., Nature protocols 7(9): 1741-1754 (2012), which is incorporated herein by reference in its entirety. Briefly, cortices were dissected in Hank's buffered salt solution (HBSS) (Invitrogen, Carlsbad, CA, USA) and digested with 2.5% trypsin for 15 min at 37° C. […]

Chain of binding of FAM19A5 protein to full-length ectodomain of LRRC4 protein (Q7Z5A7 44-132): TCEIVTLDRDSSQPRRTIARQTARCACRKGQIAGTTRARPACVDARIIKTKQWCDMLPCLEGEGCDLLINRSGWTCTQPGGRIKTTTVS

GYTYFTTVTVETLETQPGEE [FB-20] was tested, and the “inhibition of FAM19A5 binding to coated LRRC4 protein (in words)” value [1] was “able to inhibit FAM19A5 protein from binding”.

B1: LRRC4B (453-576): LRRC4B ectodomain fragment, amino acids 453-576 of SEQ ID NO: 2; FLAG-tagged or hFc-fused (protein)
chain: VSAVDPVAAGGTGSGGGGPGGSGGVGGGSGGYTYFTTVTVETLETQPGEEALQPRGTEKEPPGPTTDGVWGGGRPGDAAGPASSSTTAPAPRSSRPTEKAFTVPITDVTENALKDLDDVMKTTK
modifications: FLAG tag or human Fc
notes: FLAG-tagged or hFc-fused
In the case of B1, the “dissociation of FAM19A5 from full-length LRRC4B protein” value [2] is reported as “largely dissociated from the full-length LRRC4B protein”, the “SYP and PSD95 expression” value [3] is reported as “increased both SYP and PSD95 expression” and the “number of puncta colabeled with SYP and PSD95” value [3] is reported as “increased number of puncta that were colabeled with SYP and PSD95”.
